Target: cell surface IgG (sIgG) of the sIgG+ B cell line SU-DHL-4
Experiment: cell-based or functional assay

Row | Substance | lowest concentration with significant toxicity on SU-DHL-4 (cell viability) [µg/mL] | percent of SU-DHL-4 cells killed above 0.001 µg/ml [%] | concentration showing weak cytotoxicity on SU-DHL-4 (cell viability) [µg/mL]
1 | SpA toxin | 0.0001 | 99 | –
2 | SpG toxin (from UniProt P00587 26-411) | – | – | 1

From patent EP4647081A1
